We go through 38 substances from patent publication US20230038638A1, “COMPLEMENT FACTOR I-RELATED COMPOSITIONS AND METHODS” (published 2023).

Assay [1] has as its target soluble human C3b (human) (UniProt P01024).
The target in another assay is T1, human C4b (human) (UniProt P0C0L4).
T1 sequence: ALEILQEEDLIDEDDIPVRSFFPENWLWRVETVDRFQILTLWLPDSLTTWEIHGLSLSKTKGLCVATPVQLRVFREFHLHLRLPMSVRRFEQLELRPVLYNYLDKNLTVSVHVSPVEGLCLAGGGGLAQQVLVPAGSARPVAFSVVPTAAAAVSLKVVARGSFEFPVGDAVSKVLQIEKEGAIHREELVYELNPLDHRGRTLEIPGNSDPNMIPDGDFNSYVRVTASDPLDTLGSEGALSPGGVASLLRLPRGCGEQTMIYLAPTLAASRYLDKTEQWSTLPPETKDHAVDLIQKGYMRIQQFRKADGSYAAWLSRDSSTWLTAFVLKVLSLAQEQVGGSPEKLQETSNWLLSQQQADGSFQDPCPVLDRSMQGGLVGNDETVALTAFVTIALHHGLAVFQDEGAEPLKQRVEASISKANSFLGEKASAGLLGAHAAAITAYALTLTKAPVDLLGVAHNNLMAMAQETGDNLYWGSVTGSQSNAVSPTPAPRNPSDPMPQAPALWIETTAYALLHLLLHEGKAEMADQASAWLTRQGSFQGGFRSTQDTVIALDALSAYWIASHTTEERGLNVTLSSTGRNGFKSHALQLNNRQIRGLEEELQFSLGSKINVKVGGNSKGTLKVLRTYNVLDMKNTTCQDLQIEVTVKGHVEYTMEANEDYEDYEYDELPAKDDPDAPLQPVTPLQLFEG

Chain of CFI-HSA fusion WT; GGSSGG (SEQ ID NO: 6); CR1(ccp15); fH(ccp2); fH(ccp3); fH(ccp4) (P17927 other isoform, or with tags, fused parts or gaps limits assumed): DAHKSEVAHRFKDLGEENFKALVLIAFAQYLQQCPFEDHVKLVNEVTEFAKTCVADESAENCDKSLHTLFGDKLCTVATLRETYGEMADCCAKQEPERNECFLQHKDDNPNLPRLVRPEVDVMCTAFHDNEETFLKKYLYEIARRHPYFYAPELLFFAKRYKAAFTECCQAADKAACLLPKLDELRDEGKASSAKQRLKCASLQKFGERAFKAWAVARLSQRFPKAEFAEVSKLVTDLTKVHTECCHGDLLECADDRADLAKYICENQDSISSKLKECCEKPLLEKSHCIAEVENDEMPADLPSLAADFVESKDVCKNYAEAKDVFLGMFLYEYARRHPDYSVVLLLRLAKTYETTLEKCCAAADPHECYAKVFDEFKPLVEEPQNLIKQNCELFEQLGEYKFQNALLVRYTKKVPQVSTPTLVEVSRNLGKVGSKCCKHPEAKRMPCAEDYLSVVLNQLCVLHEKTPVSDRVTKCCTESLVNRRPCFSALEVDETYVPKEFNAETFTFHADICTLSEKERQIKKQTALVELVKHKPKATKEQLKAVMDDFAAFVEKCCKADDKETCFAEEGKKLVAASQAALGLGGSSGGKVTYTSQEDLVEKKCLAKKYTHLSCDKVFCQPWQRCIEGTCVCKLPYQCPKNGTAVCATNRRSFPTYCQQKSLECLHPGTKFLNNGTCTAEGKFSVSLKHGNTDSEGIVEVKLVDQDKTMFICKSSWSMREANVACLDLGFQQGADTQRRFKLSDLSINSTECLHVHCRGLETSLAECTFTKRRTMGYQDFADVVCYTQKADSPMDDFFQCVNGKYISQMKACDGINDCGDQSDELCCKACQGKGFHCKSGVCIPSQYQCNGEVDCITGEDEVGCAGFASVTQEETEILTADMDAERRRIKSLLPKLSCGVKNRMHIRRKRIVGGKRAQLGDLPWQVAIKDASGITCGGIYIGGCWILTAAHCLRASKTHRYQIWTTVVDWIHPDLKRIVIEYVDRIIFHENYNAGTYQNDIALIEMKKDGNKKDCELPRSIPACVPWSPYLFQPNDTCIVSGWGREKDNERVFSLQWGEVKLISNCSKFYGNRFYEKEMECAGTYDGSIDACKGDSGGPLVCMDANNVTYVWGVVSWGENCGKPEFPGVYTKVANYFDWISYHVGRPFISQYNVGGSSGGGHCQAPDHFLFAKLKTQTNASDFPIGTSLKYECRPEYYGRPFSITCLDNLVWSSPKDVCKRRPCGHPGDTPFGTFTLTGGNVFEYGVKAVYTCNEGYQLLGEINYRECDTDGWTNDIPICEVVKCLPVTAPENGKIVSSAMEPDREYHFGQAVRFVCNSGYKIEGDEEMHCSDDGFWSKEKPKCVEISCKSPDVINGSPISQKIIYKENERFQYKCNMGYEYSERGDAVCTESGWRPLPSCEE

On to “CFI-HSA Y408L; N531G; E457G; F464Y (enzyme)”, for which the iC3b Screen Ref Fold (fold of CFI-HSA wild type) in assay [1] was found to be 0.84. Besides, in the assay with human C4b (human), the C4b Screen Ref Fold (fold of CFI-HSA wild type) came to 6.45.

Regarding “CFI-HSA Y408L; N531G; E457G; R462K (enzyme)”, the iC3b Screen Ref Fold (fold of CFI-HSA wild type) in assay [1] is 1.29. Moreover, the C4b Screen Ref Fold (fold of CFI-HSA wild type) in the assay with human C4b (human) was found to be 6.12.

Consider “CFI-HSA Y408L; N531G; E461Q; F464Y (enzyme)”, for which, in assay [1], the iC3b Screen Ref Fold (fold of CFI-HSA wild type) is 1.29. Further, in the assay with human C4b (human), the C4b Screen Ref Fold (fold of CFI-HSA wild type) was found to be 5.6.

For the substance “CFI-HSA Y408L; N531G; E461Q; R462K (enzyme)”, in assay [1], the iC3b Screen Ref Fold (fold of CFI-HSA wild type) came out at 1.24. In addition, the C4b Screen Ref Fold (fold of CFI-HSA wild type) in the assay with human C4b (human) worked out at 6.79.

On to CFI-HSA Y408L; N531G; F464Y (enzyme), for which, in assay [1], the iC3b Screen Ref Fold (fold of CFI-HSA wild type) amounted to 1. Also, the C4b Screen Ref Fold (fold of CFI-HSA wild type) with human C4b (human) stood at 5.93.

With CFI-HSA Y408L; N531G; R462K (enzyme), in assay [1], the iC3b Screen Ref Fold (fold of CFI-HSA wild type) was determined as 1.13. Further, in the assay with human C4b (human), the C4b Screen Ref Fold (fold of CFI-HSA wild type) was 3.76.

As to “CFI-HSA Y408L; N531G; R462K; F464Y (enzyme)”, in assay [1], the iC3b Screen Ref Fold (fold of CFI-HSA wild type) was 1.19. In addition, in the assay with human C4b (human), the C4b Screen Ref Fold (fold of CFI-HSA wild type) was found to be 5.72.

CFI-HSA Y408L; R462K (enzyme): the iC3b Screen Ref Fold (fold of CFI-HSA wild type) in assay [1] turned out to be 0.48. Moreover, the C4b Screen Ref Fold (fold of CFI-HSA wild type) with human C4b (human) turned out to be 0.31.

Regarding CFI-HSA Y408L; R462K; F464Y (enzyme), the iC3b Screen Ref Fold (fold of CFI-HSA wild type) in assay [1] was 0.19. Also, the C4b Screen Ref Fold (fold of CFI-HSA wild type) with human C4b (human) was 0.27.

With CFI-HSA Y408L; S507A; N531G (enzyme), in assay [1], the iC3b Screen Ref Fold (fold of CFI-HSA wild type) is -0.01. Further, the C4b Screen Ref Fold (fold of CFI-HSA wild type) with human C4b (human) came out at 0.12.

For “CFI-HSA Y408L; S507A; N531G; GGSSGG (SEQ ID NO: 6); CCP_1-4 (enzyme)”, in assay [1], the iC3b Screen Ref Fold (fold of CFI-HSA wild type) was found to be 0.01. In addition, in the assay with human C4b (human), the C4b Screen Ref Fold (fold of CFI-HSA wild type) was 0.1.

“CFI-HSA fusion WT; GGSSGG (SEQ ID NO: 6); CR1(ccp15); CR1(ccp16); CR1(ccp17); fH(ccp4) (from UniProt P17927) (enzyme)”: the iC3b Screen Ref Fold (fold of reference) in assay [1] is 0.01. For the same substance, the C4b Screen Ref Fold (fold of reference) with human C4b (human) amounted to 2.57.

“CFI-HSA fusion WT; GGSSGG (SEQ ID NO: 6); CR1(ccp15); CR1(ccp16); fH(ccp3); fH(ccp4) (from UniProt P17927) (enzyme)”: the iC3b Screen Ref Fold (fold of reference) in assay [1] is -0.01. Further, the C4b Screen Ref Fold (fold of reference) in the assay with human C4b (human) came to 0.25.

Take “CFI-HSA fusion WT; GGSSGG (SEQ ID NO: 6); CR1(ccp15); fH(ccp2); fH(ccp3); fH(ccp4) (from UniProt P17927) (enzyme)”: in assay [1], the iC3b Screen Ref Fold (fold of reference) was -0.01. The C4b Screen Ref Fold (fold of reference) in the assay with human C4b (human) came out at 1.44.

As for “CFI-HSA fusion WT; GGSSGG (SEQ ID NO: 6); fH(ccp1); CR1(ccp16); CR1(ccp17); fH(ccp4) (from UniProt P17927) (enzyme)”, the iC3b Screen Ref Fold (fold of reference) in assay [1] came out at 0. In addition, the C4b Screen Ref Fold (fold of reference) with human C4b (human) turned out to be 0.42.

With “CFI-HSA fusion WT; GGSSGG (SEQ ID NO: 6); fH(ccp1); CR1(ccp16); fH(ccp3); fH(ccp4) (from UniProt P17927) (enzyme)”, the iC3b Screen Ref Fold (fold of reference) in assay [1] is 0. Also, the C4b Screen Ref Fold (fold of reference) in the assay with human C4b (human) turned out to be 0.59.

Consider “CFI-HSA variant A405S; G406A; Y408L; Q409D (enzyme)”, for which the iC3b Screen Ref Fold (fold of reference) in assay [1] worked out at 0.06. Moreover, the C4b Screen Ref Fold (fold of reference) in the assay with human C4b (human) worked out at 0.11.

As for “CFI-HSA variant A405S; G406R; Y408L; Q409D (enzyme)”, the iC3b Screen Ref Fold (fold of reference) in assay [1] is 0.13. In addition, the C4b Screen Ref Fold (fold of reference) with human C4b (human) is -0.08.

With “CFI-HSA variant D425K; E457G; E461Q; K504R; N531G (enzyme)”, in assay [1], the iC3b Screen Ref Fold (fold of CFI-HSA wild type) amounted to 2.46. Besides, in the assay with human C4b (human), the C4b Screen Ref Fold (fold of CFI-HSA wild type) worked out at 3.53.

Turning to “CFI-HSA variant D425K; E457G; E461Q; N531G; P558S (enzyme)”, the iC3b Screen Ref Fold (fold of CFI-HSA wild type) in assay [1] was 1.98. Besides, in the assay with human C4b (human), the C4b Screen Ref Fold (fold of CFI-HSA wild type) came out at 3.25.

For “CFI-HSA variant D425K; E530F; F537K; K504R (enzyme)”, the iC3b Screen Ref Fold (fold of CFI-HSA wild type) in assay [1] was 0.13. In addition, in the assay with human C4b (human), the C4b Screen Ref Fold (fold of CFI-HSA wild type) was 0.02.

As to “CFI-HSA variant D425K; E530F; F537K; K504R; P558S (enzyme)”, the iC3b Screen Ref Fold (fold of CFI-HSA wild type) in assay [1] is 0.09. Further, the C4b Screen Ref Fold (fold of CFI-HSA wild type) in the assay with human C4b (human) stood at 0.16.

CFI-HSA variant D425K; F537K (enzyme): the iC3b Screen Ref Fold (fold of CFI-HSA wild type) in assay [1] is 2.11. In the assay with human C4b (human), the C4b Screen Ref Fold (fold of CFI-HSA wild type) stood at 0.22.

In the case of CFI-HSA variant D425K; K504R (enzyme), the iC3b Screen Ref Fold (fold of CFI-HSA wild type) in assay [1] worked out at 2.05. The C4b Screen Ref Fold (fold of CFI-HSA wild type) with human C4b (human) was 0.12.

CFI-HSA variant D425K; S507A (enzyme): the iC3b Screen Ref Fold (fold of CFI-HSA wild type) in assay [1] is -0.03. In addition, the C4b Screen Ref Fold (fold of CFI-HSA wild type) in the assay with human C4b (human) is 0.01.

For the substance “CFI-HSA variant D425K; Y408M; E530F; F537K (enzyme)”, in assay [1], the iC3b Screen Ref Fold (fold of CFI-HSA wild type) was determined as 0.07. The C4b Screen Ref Fold (fold of CFI-HSA wild type) with human C4b (human) is 0.03.

As to “CFI-HSA variant D425K; Y408M; E530F; F537K; K504R (enzyme)”, in assay [1], the iC3b Screen Ref Fold (fold of CFI-HSA wild type) was 0.02. Besides, the C4b Screen Ref Fold (fold of CFI-HSA wild type) with human C4b (human) was found to be 0.15.

Turning to “CFI-HSA variant D425K; Y408M; E530F; F537K; K504R; P558S (enzyme)”, the iC3b Screen Ref Fold (fold of CFI-HSA wild type) in assay [1] turned out to be 0.01. In addition, in the assay with human C4b (human), the C4b Screen Ref Fold (fold of CFI-HSA wild type) came to 0.11.

With “CFI-HSA variant D425K; Y408M; E530F; F537K; P558S (enzyme)”, in assay [1], the iC3b Screen Ref Fold (fold of CFI-HSA wild type) came out at 0.04. Moreover, the C4b Screen Ref Fold (fold of CFI-HSA wild type) in the assay with human C4b (human) amounted to 0.07.

As for “CFI-HSA variant D425K; Y408M; E530F; K504R; P558S (enzyme)”, the iC3b Screen Ref Fold (fold of CFI-HSA wild type) in assay [1] was determined as 1.84. Moreover, the C4b Screen Ref Fold (fold of CFI-HSA wild type) in the assay with human C4b (human) was determined as 0.49.

Regarding “CFI-HSA variant D425K; Y408M; E530F; P558S (enzyme)”, in assay [1], the iC3b Screen Ref Fold (fold of CFI-HSA wild type) came to 1.53. Besides, the C4b Screen Ref Fold (fold of CFI-HSA wild type) with human C4b (human) turned out to be 0.07.

In the case of “CFI-HSA variant D425K; Y408M; F537K; K504R; P558S (enzyme)”, in assay [1], the iC3b Screen Ref Fold (fold of CFI-HSA wild type) was 1.49. For the same substance, the C4b Screen Ref Fold (fold of CFI-HSA wild type) with human C4b (human) was 0.08.

As to “CFI-HSA variant E416A; E457G; E461Q; R462K; F464Y; N531G (enzyme)”, in assay [1], the iC3b Screen Ref Fold (fold of CFI-HSA wild type) turned out to be 3.21. In addition, the C4b Screen Ref Fold (fold of CFI-HSA wild type) with human C4b (human) stood at 3.68.

Consider “CFI-HSA variant E457G; E461Q; N531G; S507A (enzyme)”, for which the iC3b Screen Ref Fold (fold of CFI-HSA wild type) in assay [1] is -0.04. Also, in the assay with human C4b (human), the C4b Screen Ref Fold (fold of CFI-HSA wild type) was -0.05.

Consider CFI-HSA variant E457G; S507A (enzyme), for which, in assay [1], the iC3b Screen Ref Fold (fold of CFI-HSA wild type) is -0.02. For the same substance, the C4b Screen Ref Fold (fold of CFI-HSA wild type) in the assay with human C4b (human) was 0.1.

Turning to CFI-HSA variant E461A (enzyme), in assay [1], the iC3b Screen Ref Fold (fold of reference) was determined as 1.37. Also, the C4b Screen Ref Fold (fold of reference) with human C4b (human) came to 1.44.

For the substance CFI-HSA variant E461D (enzyme), the iC3b Screen Ref Fold (fold of reference) in assay [1] turned out to be 0.12. The C4b Screen Ref Fold (fold of reference) in the assay with human C4b (human) stood at 0.12.

In the case of CFI-HSA variant E461F (enzyme), the iC3b Screen Ref Fold (fold of reference) in assay [1] amounted to 0.95. In addition, in the assay with human C4b (human), the C4b Screen Ref Fold (fold of reference) was determined as 2.62.
